# Assay results published in patent US20130133089A1 (MEDICAL RESEARCH INFRASTRUCTURE AND HEALTH SERVICES FUND OF …, published 2013).
# Target: long form of human leptin receptor (hLEPR) on BAF/3 or H-49 (HEK-293) cells (human), P48357
# Test: cell-based or functional assay
# Sequence of long form of human leptin receptor (hLEPR) on BAF/3 or H-49 (HEK-293) cells (human), P48357 (P48357 22-1165): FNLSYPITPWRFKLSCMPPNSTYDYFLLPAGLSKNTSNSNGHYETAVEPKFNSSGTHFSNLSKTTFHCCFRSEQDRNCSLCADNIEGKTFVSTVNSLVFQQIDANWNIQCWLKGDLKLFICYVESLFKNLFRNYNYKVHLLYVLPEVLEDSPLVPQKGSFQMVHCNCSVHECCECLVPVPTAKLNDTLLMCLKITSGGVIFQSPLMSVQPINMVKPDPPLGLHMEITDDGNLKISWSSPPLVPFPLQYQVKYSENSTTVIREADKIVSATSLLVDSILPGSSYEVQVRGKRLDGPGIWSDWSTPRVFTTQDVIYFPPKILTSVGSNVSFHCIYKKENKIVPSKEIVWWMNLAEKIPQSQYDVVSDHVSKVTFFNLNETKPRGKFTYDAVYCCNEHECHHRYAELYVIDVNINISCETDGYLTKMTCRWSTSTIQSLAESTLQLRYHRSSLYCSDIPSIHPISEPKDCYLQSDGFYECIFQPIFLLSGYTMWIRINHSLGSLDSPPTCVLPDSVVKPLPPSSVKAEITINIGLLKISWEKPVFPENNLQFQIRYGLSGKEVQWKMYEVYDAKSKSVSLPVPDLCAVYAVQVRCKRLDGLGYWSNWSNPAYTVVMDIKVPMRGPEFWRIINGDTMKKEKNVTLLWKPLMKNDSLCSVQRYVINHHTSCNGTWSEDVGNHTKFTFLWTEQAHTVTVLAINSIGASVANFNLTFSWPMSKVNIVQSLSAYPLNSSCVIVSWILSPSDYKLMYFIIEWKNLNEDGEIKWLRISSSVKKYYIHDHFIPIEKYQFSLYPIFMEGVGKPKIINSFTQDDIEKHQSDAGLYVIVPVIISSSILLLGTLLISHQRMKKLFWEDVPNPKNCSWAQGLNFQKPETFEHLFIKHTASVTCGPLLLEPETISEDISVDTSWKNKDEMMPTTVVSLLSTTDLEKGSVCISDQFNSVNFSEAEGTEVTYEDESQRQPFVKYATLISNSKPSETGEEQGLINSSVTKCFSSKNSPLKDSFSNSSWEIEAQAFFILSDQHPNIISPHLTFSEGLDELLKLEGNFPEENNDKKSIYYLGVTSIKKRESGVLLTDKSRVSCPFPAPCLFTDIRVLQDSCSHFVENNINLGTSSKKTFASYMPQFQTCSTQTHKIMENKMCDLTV
Binder,BAF/3 bioassay: fold increase in bioactivity as compared to the WT mouse leptin antagonist [fold],Luciferase bioassay: fold increase in bioactivity as compared to the WT mouse leptin antagonist [fold],also measured
"mouse leptin antagonist H15 (D23G, L68M, S97F, S132Y + L39A/D40A/F41A), P41160 22-167 (ligand) AVPIQKVQDDTKTLIKTIVTRINGISHTQSVSAKQRVTGAAAIPGLHPILSLSKMDQTLAVYQQVLTSMPSQNVLQIANDLENLRDLLHLLAFSKSCFLPQTSGLQKPESLDGVLEASLYSTEVVALSRLQGYLQDILQQLDVSPEC",4.8,4.2,–
"mouse leptin antagonist H19 (D23G, T37A, G44D + L39A/D40A/F41A), P41160 22-167 (ligand) AVPIQKVQDDTKTLIKTIVTRINGISHTQSVSAKQRVAGAAAIPDLHPILSLSKMDQTLAVYQQVLTSLPSQNVLQIANDLENLRDLLHLLAFSKSCSLPQTSGLQKPESLDGVLEASLYSTEVVALSRLQGSLQDILQQLDVSPEC",3.5,2.9,–
"recombinant mouse leptin mutein H15 (D23G, L68M, S97F, S132Y), agonist, P41160 22-167 (ligand) AVPIQKVQDDTKTLIKTIVTRINGISHTQSVSAKQRVTGLDFIPGLHPILSLSKMDQTLAVYQQVLTSMPSQNVLQIANDLENLRDLLHLLAFSKSCFLPQTSGLQKPESLDGVLEASLYSTEVVALSRLQGYLQDILQQLDVSPEC",–,–,BAF/3 bioassay: fold increase in bioactivity as compared to the WT mouse leptin: 0.5 fold; Luciferase bioassay: fold increase in bioactivity as compared to the WT mouse leptin: 0.8 fold
"mouse leptin antagonist H12 (S97Y + L39A/D40A/F41A), P41160 22-167 (ligand) AVPIQKVQDDTKTLIKTIVTRINDISHTQSVSAKQRVTGAAAIPGLHPILSLSKMDQTLAVYQQVLTSLPSQNVLQIANDLENLRDLLHLLAFSKSCYLPQTSGLQKPESLDGVLEASLYSTEVVALSRLQGSLQDILQQLDVSPEC",0.8,0.1,–
"recombinant mouse leptin mutein H12 (S97Y), agonist, P41160 22-167 (ligand) AVPIQKVQDDTKTLIKTIVTRINDISHTQSVSAKQRVTGLDFIPGLHPILSLSKMDQTLAVYQQVLTSLPSQNVLQIANDLENLRDLLHLLAFSKSCYLPQTSGLQKPESLDGVLEASLYSTEVVALSRLQGSLQDILQQLDVSPEC",–,–,BAF/3 bioassay: fold increase in bioactivity as compared to the WT mouse leptin: 0.9 fold; Luciferase bioassay: fold increase in bioactivity as compared to the WT mouse leptin: 0.7 fold
"recombinant mouse leptin mutein H22 (T12I), agonist, P41160 22-167 (ligand) AVPIQKVQDDTKILIKTIVTRINDISHTQSVSAKQRVTGLDFIPGLHPILSLSKMDQTLAVYQQVLTSLPSQNVLQIANDLENLRDLLHLLAFSKSCSLPQTSGLQKPESLDGVLEASLYSTEVVALSRLQGSLQDILQQLDVSPEC",–,–,BAF/3 bioassay: fold increase in bioactivity as compared to the WT mouse leptin: 0.8 fold; Luciferase bioassay: fold increase in bioactivity as compared to the WT mouse leptin: 0.7 fold
"pegylated mouse leptin antagonist (PEG-MLA), P41160 22-167 (ligand, here or on the partner: pegylated (method previously described for MLA; 20 kDa PEG, site not restated here)) AVPIQKVQDDTKTLIKTIVTRINDISHTQSVSAKQRVTGAAAIPGLHPILSLSKMDQTLAVYQQVLTSLPSQNVLQIANDLENLRDLLHLLAFSKSCSLPQTSGLQKPESLDGVLEASLYSTEVVALSRLQGSLQDILQQLDVSPEC",–,–,biological activity: fold reduction by pegylation of MLA: 7 fold
"mouse leptin antagonist H16 (D23G, G112S + L39A/D40A/F41A), P41160 22-167 (ligand) AVPIQKVQDDTKTLIKTIVTRINGISHTQSVSAKQRVTGAAAIPGLHPILSLSKMDQTLAVYQQVLTSLPSQNVLQIANDLENLRDLLHLLAFSKSCSLPQTSGLQKPESLDSVLEASLYSTEVVALSRLQGSLQDILQQLDVSPEC",3.3,3.3,–
"human leptin super antagonist (SHLA), human leptin D23L/L39A/D40A/F41A, P41159 22-167 (ligand) VPIQKVQDDTKTLIKTIVTRINLISHTQSVSSKQKVTGAAAIPGLHPILTLSKMDQTLAVYQQILTSMPSQNVIQISNDLENLRDLLHVLAFSKSCHLPWASGLETLDSLGGVLEASGYSTEVVALSRLQGSLQDMLWQLDLSPGC",–,–,"biological (inhibitory) activity, FIG. 12A: fold higher than that of HLA: > 9 fold"

# Continued, in another order:
BAF/3 bioassay: fold increase in bioactivity as compared to the WT mouse leptin antagonist [fold],Luciferase bioassay: fold increase in bioactivity as compared to the WT mouse leptin antagonist [fold],Binder,also measured
2.4,3.3,"mouse leptin antagonist H22 (T12I + L39A/D40A/F41A), P41160 22-167 (ligand) AVPIQKVQDDTKILIKTIVTRINDISHTQSVSAKQRVTGAAAIPGLHPILSLSKMDQTLAVYQQVLTSLPSQNVLQIANDLENLRDLLHLLAFSKSCSLPQTSGLQKPESLDGVLEASLYSTEVVALSRLQGSLQDILQQLDVSPEC",–
13.9,13.4,"superactive mouse leptin antagonist (SMLA), D23L/L39A/D40A/F41A mouse leptin, P41160 22-167 (ligand) VPIQKVQDDTKTLIKTLVTRINLISHTQSVSAKQRVTGAAAIPGLHPILSLSKMDQTLAVYQQVLTSLPSQNVLQIANDLENLRDLLHLLAFSKSCSLPQTSGLQKPESLDGVLEASLYSTEVVALSRLQGSLQDILQQVDLSPGC","biological (inhibitory) activity, FIG. 12A: fold higher than that of HLA: > 9 fold"
